Values quoted from earlier work, collected in publication PMC2721158.

Key:
[1] = target: cyclic HPQ peptide … (synthetic construct)
[2] = target: linear peptide HDHPQNL (synthetic construct); assay: titration calorimetry
[3] = target: linear HPQ peptide FSHPQNT (synthetic construct); assay: titration calorimetry

Chain of streptavidin (P22629 25-183): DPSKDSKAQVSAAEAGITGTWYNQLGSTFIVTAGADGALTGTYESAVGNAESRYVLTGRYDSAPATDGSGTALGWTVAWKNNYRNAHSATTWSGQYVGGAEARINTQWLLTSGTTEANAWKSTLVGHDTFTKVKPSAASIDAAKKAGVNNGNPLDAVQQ

Substance: streptavidin (from UniProt P22629)
- Kd [1]: 0.23 µM
- Kd [2]: 282 µM
- Kd [3]: 126 µM
